Data reported in PMC6695498, “Arkadia/RNF111 is a SUMO-targeted ubiquitin ligase with preference for substrates marked with SUMO1-capped SUMO2/3 chain” (Nature Communications, 2019).
Several values for one entry are separate records, joined by “and”; a condition that tells them apart may be missing. Identical values can stand only once.

T1: Arkadia SUMO-binding domain (residues 285-416), wild type (mouse, UniProt Q99ML9 285-416)
T1 construct: it holds SIM1, SOB and SIM2; Subcloned into pGEX-TEV/N (TEV site after the thrombin site); also called Arkadia-WT 285-416; SIM domain of Arkadia
T1 sequence (looked up): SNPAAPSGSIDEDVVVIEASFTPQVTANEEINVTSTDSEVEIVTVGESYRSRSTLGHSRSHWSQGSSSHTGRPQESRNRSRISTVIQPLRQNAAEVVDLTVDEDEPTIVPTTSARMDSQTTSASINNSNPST


Molecular target: T1, Arkadia SUMO-binding domain (residues …)
Assay: ITC; iTC200; ITC buffer (50 mM Tris/HCl pH 7.5, 150 mM NaCl, 2 mM DTT, 5% glycerol), 30 °C; 20-30 injections up to a twofold to threefold molar excess; which partner was in the syringe is not told; single titrations and their mean
Conditions: both partners purified

| Kd | Binder |
| --- | --- |
| 1.4 µM and 3.8 µM and 2.1 µM | linear SUMO1-capped SUMO2 dimer (SUMO1-ΔN15 - SUMO2-ΔN11) (other) KKEGEYIKLKVIGQDSSEIHFKVKMTTHLKKLKESYCQRQGVPMNSLRFLFEGQRIADNHTPKELGMEEEDVIEVYQEQTRSTENNDHINLKVAGQDGSVVQFKIKRHTPLSKLMKAYCERQGLSMRQIRFRFDGQPINETDTPAQLEMEDEDTIDVFQQQTGG |
| 3.5 µM and 2.1 µM and 2.3 µM and 1.5 µM | linear SUMO1-capped SUMO2 trimer (SUMO1-ΔN15 - 2xSUMO2-ΔN11) (other) KKEGEYIKLKVIGQDSSEIHFKVKMTTHLKKLKESYCQRQGVPMNSLRFLFEGQRIADNHTPKELGMEEEDVIEVYQEQTRSTENNDHINLKVAGQDGSVVQFKIKRHTPLSKLMKAYCERQGLSMRQIRFRFDGQPINETDTPAQLEMEDEDTIDVFQQQTRSTENNDHINLKVAGQDGSVVQFKIKRHTPLSKLMKAYCERQGLSMRQIRFRFDGQPINETDTPAQLEMEDEDTIDVFQQQTGG |
